Laboratory results published in the supplement of paper PMC11246515.
± gives the standard deviation of the averaged measurements.

Test: total protein half-life in vivo (active degradation + dilution); higher = more stable protein
[1] = E. coli NCM3722 delta-clpP delta-lon delta-hslV, growth: N-lim chemostat, doubling time 6 h
[2] = E. coli NCM3722 delta-clpP, growth: N-lim chemostat, doubling time 6 h
[3] = E. coli NCM3722 delta-lon, growth: N-lim chemostat, doubling time 6 h
[4] = E. coli NCM3722 delta-smpB, growth: N-lim chemostat, doubling time 6 h
[5] = wild type E. coli NCM3722, growth: C-lim chemostat, doubling time 3 h
[6] = wild type E. coli NCM3722, growth: C-lim chemostat, doubling time 6 h
[7] = wild type E. coli NCM3722, growth: C-lim chemostat, doubling time 12 h
[8] = wild type E. coli NCM3722, growth: N-lim chemostat, doubling time 6 h
[9] = wild type E. coli NCM3722, growth: N-lim chemostat, doubling time 12 h
[10] = E. coli NCM3722 delta-hslV, growth: N-lim chemostat, doubling time 6 h
[11] = wild type E. coli NCM3722, growth: P-lim chemostat, doubling time 6 h
[12] = wild type E. coli NCM3722, growth: P-lim chemostat, doubling time 12 h

Substance: MTLFTTLLVLIFERLFKLGEHWQLDHRLEAFFRRVKHFSLGRTLGMTIIAMGVTFLLLRALQGVLFNVPTLLVWLLIGLLCIGAGKVRLHYHAYLTAASRNDSHARATMAGELTMIHGVPAGCDEREYLRELQNALLWINFRFYLAPLFWLIVGGTWGPVTLMGYAFLRAWQYWLARYQTPHHRLQSGIDAVLHVLDWVPVRLAGVVYALIGHGEKALPAWFASLGDFHTSQYQVLTRLAQFSLAREPHVDKVETPKAAVSMAKKTSFVVVVVIALLTIYGALV [P0AE14]
- total protein half-life in vivo [1]: 6.33 ± 0.16 h
- total protein half-life in vivo [2]: 6.29 h
- total protein half-life in vivo [3]: 5.3 ± 0.39 h
- total protein half-life in vivo [4]: 6.02 ± 0.49 h
- total protein half-life in vivo [5]: 3.246 ± 0.031 h
- total protein half-life in vivo [6]: 5.626 ± 0.0074 h
- total protein half-life in vivo [7]: 13.1 ± 3.9 h
- total protein half-life in vivo [8]: 6.63 ± 0.9 h
- total protein half-life in vivo [9]: 14 ± 2.6 h

Substance: MTLWINGDWITGQGASRVKRNPVSGEVLWQGNDADAAQVEQACRAARAAFPRWARLSFAERHAVVERFAALLESNKAELTAIIARETGKPRWEAATEVTAMINKIAISIKAYHVRTGEQRSEMPDGAASLRHRPHGVLAVFGPYNFPGHLPNGHIVPALLAGNTIIFKPSELTPWSGEAVMRLWQQAGLPPGVLNLVQGGRETGQALSALEDLDGLLFTGSANTGYQLHRQLSGQPEKILALEMGGNNPLIIDEVADIDAAVHLTIQSAFVTAGQRCTCARRLLLKSGAQGDAFLARLVAVSQRLTPGNWDDEPQPFIGGLISEQAAQQVVTAWQQLEAMGGRPLLAPRLLQAGTSLLTPGIIEMTGVAGVPDEEVFGPLLRVWRYDTFDEAIRMANNTRFGLSCGLVSPEREKFDQLLLEARAGIVNWNKPLTGAASTAPFGGIGASGNHRPSAWYAADYCAWPMASLESDSLTLPATLNPGLDFSDEVVR
- total protein half-life in vivo [1]: 5.21 ± 0.42 h
- total protein half-life in vivo [2]: 3.93 ± 0.27 h
- total protein half-life in vivo [10]: 3.9 ± 0.23 h
- total protein half-life in vivo [3]: 4.05 ± 0.23 h
- total protein half-life in vivo [4]: 3.9 ± 0.34 h
- total protein half-life in vivo [5]: 3.01 ± 0.28 h
- total protein half-life in vivo [6]: 5.5 ± 0.65 h
- total protein half-life in vivo [7]: 10.05 ± 0.096 h
- total protein half-life in vivo [8]: 3.67 ± 0.23 h
- total protein half-life in vivo [9]: 6.26 ± 0.56 h
- total protein half-life in vivo [11]: 5.78 ± 0.31 h
- total protein half-life in vivo [12]: 12.1 ± 1.7 h

Substance: MTKHYDYIAIGGGSGGIASINRAAMYGQKCALIEAKELGGTCVNVGCVPKKVMWHAAQIREAIHMYGPDYGFDTTINKFNWETLIASRTAYIDRIHTSYENVLGKNNVDVIKGFARFVDAKTLEVNGETITADHILIATGGRPSHPDIPGVEYGIDSDGFFALPALPERVAVVGAGYIAVELAGVINGLGAKTHLFVRKHAPLRSFDPMISETLVEVMNAEGPQLHTNAIPKAVVKNTDGSLTLELEDGRSETVDCLIWAIGREPANDNINLEAAGVKTNEKGYIVVDKYQNTNIEGIYAVGDNTGAVELTPVAVAAGRRLSERLFNNKPDEHLDYSNIPTVVFSHPPIGTVGLTEPQAREQYGDDQVKVYKSSFTAMYTAVTTHRQPCRMKLVCVGSEEKIVGIHGIGFGMDEMLQGFAVALKMGATKKDFDNTVAIHPTAAEEFVTMR
- total protein half-life in vivo [1]: 5.12 ± 0.23 h
- total protein half-life in vivo [2]: 5.46 ± 0.48 h
- total protein half-life in vivo [10]: 4.85 ± 0.18 h
- total protein half-life in vivo [3]: 5.81 ± 0.49 h
- total protein half-life in vivo [4]: 4.64 ± 0.066 h
- total protein half-life in vivo [5]: 3.02 ± 0.17 h
- total protein half-life in vivo [6]: 6.27 ± 0.5 h
- total protein half-life in vivo [7]: 11.5 ± 0.61 h
- total protein half-life in vivo [8]: 5.08 ± 0.14 h
- total protein half-life in vivo [9]: 8.33 ± 0.71 h
- total protein half-life in vivo [11]: 6.07 ± 0.31 h
- total protein half-life in vivo [12]: 13 ± 0.92 h

Substance: MLSIKDLHVSVEDKAILRGLSLDVHPGEVHAIMGPNGSGKSTLSATLAGREDYEVTGGTVEFKGKDLLALSPEDRAGEGIFMAFQYPVEIPGVSNQFFLQTALNAVRSYRGQETLDRFDFQDLMEEKIALLKMPEDLLTRSVNVGFSGGEKKRNDILQMAVLEPELCILDESDSGLDIDALKVVADGVNSLRDGKRSFIIVTHYQRILDYIKPDYVHVLYQGRIVKSGDFTLVKQLEEQGYGWLTEQQ
- total protein half-life in vivo [1]: 4.81 ± 0.069 h
- total protein half-life in vivo [2]: 5.52 ± 1.8 h
- total protein half-life in vivo [10]: 4.19 ± 0.79 h
- total protein half-life in vivo [3]: 4.25 ± 0.1 h
- total protein half-life in vivo [4]: 3.63 ± 0.052 h
- total protein half-life in vivo [5]: 2.88 ± 0.13 h
- total protein half-life in vivo [6]: 5.37 ± 0.23 h
- total protein half-life in vivo [7]: 10.1 ± 0.62 h
- total protein half-life in vivo [8]: 3.75 ± 0.3 h
- total protein half-life in vivo [9]: 5.68 ± 0.23 h
- total protein half-life in vivo [11]: 5.47 ± 0.51 h
- total protein half-life in vivo [12]: 9.75 ± 0.2 h

Substance: MKPYQRQFIEFALSKQVLKFGEFTLKSGRKSPYFFNAGLFNTGRDLALLGRFYAEALVDSGIEFDLLFGPAYKGIPIATTTAVALAEHHDLDLPYCFNRKEAKDHGEGGNLVGSALQGRVMLVDDVITAGTAIRESMEIIQANGATLAGVLISLDRQERGRGEISAIQEVERDYNCKVISIITLKDLIAYLEEKPEMAEHLAAVKAYREEFGV [P0A7E3]
- total protein half-life in vivo [1]: 4.07 ± 0.75 h
- total protein half-life in vivo [2]: 3.84 ± 0.28 h
- total protein half-life in vivo [10]: 3.61 h
- total protein half-life in vivo [3]: 4.35 ± 0.61 h
- total protein half-life in vivo [4]: 3.83 ± 0.08 h
- total protein half-life in vivo [5]: 2.87 ± 0.3 h
- total protein half-life in vivo [6]: 5.31 ± 0.18 h
- total protein half-life in vivo [7]: 9.3 ± 3.5 h
- total protein half-life in vivo [8]: 3.93 ± 0.33 h
- total protein half-life in vivo [9]: 6.396 ± 0.051 h
- total protein half-life in vivo [11]: 5.62 ± 0.25 h
- total protein half-life in vivo [12]: 10.7 ± 0.39 h

Substance: MQFEKMITEGSNTASAEIDRVSTLEMCRIINDEDKTVPLAVERVLPDIAAAIDVIHAQVSGGGRLIYLGAGTSGRLGILDASECPPTYGVKPGLVVGLIAGGEYAIQHAVEGAEDSREGGVNDLKNINLTAQDVVVGIAASGRTPYVIAGLEYARQLGCRTVGISCNPGSAVSTTAEFAITPIVGAEVVTGSSRMKAGTAQKLVLNMLSTGLMIKSGKVFGNLMVDVVATNEKLHVRQVNIVKNATGCSAEQAEAALIACERNCKTAIVMVLKNLDAAEAKKRLDQHGGFIRQVLDKE
- total protein half-life in vivo [1]: 5.64 ± 0.068 h
- total protein half-life in vivo [2]: 4.82 ± 0.37 h
- total protein half-life in vivo [10]: 5.96 ± 1.8 h
- total protein half-life in vivo [3]: 4.88 ± 0.37 h
- total protein half-life in vivo [4]: 4.08 ± 0.35 h
- total protein half-life in vivo [5]: 3.04 ± 0.084 h
- total protein half-life in vivo [6]: 5.28 ± 0.059 h
- total protein half-life in vivo [7]: 8.41 ± 0.19 h
- total protein half-life in vivo [8]: 4.37 ± 0.25 h
- total protein half-life in vivo [9]: 8.74 ± 0.62 h
- total protein half-life in vivo [11]: 5.92 ± 1.1 h
- total protein half-life in vivo [12]: 9.65 ± 0.26 h

Substance: MFSEVMRYILDLGPTVMLPIVIIIFSKILGMKAGDCFKAGLHIGIGFVGIGLVIGLMLDSIGPAAKAMAENFDLNLHVVDVGWPGSSPMTWASQIALVAIPIAILVNVAMLLTRMTRVVNVDIWNIWHMTFTGALLHLATGSWMIGMAGVVIHAAFVYKLGDWFARDTRNFFELEGIAIPHGTSAYMGPIAVLVDAIIEKIPGVNRIKFSADDIQRKFGPFGEPVTVGFVMGLIIGILAGYDVKGVLQLAVKTAAVMLLMPRVIKPIMDGLTPIAKQARSRLQAKFGGQEFLIGLDPALLLGHTAVVSASLIFIPLTILIAVCVPGNQVLPFGDLATIGFFVAMAVAVHRGNLFRTLISGVIIMSITLWIATQTIGLHTQLAANAGALKAGGMVASMDQGGSPITWLLIQVFSPQNIPGFIIIGAIYLTGIFMTWRRARGFIKQEKVVLAE
- total protein half-life in vivo [1]: 6.09 h

Substance: P76347
- total protein half-life in vivo [1]: 6.25 ± 0.88 h
- total protein half-life in vivo [2]: 1.86 h
- total protein half-life in vivo [9]: 3.04 h
